# According to the DeepSol protein solubility set:
# Test: soluble on expression in E. coli; label from the status in PepcDB or PDB records
row,Sequence,soluble on expression in E. coli
1,MTSDIKAILEQVVISPDVPIAEAIAQLDRAGTGSLVVCSADKKLYGLLTDGDVRRALLKAVDMGAPCGDIANRKPVITFVPLLPIEALRLMNHHDINHLPVLDAEGRVVDFLLRRDLVAEDELAARARRRLDSVVIPCSASIAEAIAQLDRAGTGALVLCSEGDRLHGLLTDGDIRRAVLRGISLDAPCQDVASRRPVTVEPSFSAAQALHLMNQHDINHLPVVDDTGRVVDFLLRRDLIADDQLNLSAVVMAGGYGKRLLPLTEQVPKPMLPVGDRPLLERTIDQLRRSGIREVNLTTHYLPDSIVEHFGDGDSFGVKLNYLKEDHPLGTAGGLKLMKKASDPFLVMNGDILTGVPFQEMFAYHRKNGAEITVGVRKYEVQVPFGVVECDDVRITGLKEKPSLTFFINAGIYLLEPSVCDLIPEGERFDMTDLIQKLLDEGRSVVSFPIMEYWLDVGRHEDYQKAQEDVRSGKIQLEHHHHHH,not soluble
2,MTSFNSFMRPLAAAILSALVTLAPVAPQAQEAVRGAVTNLPIPRFVSMKANEGNVRRGPSLTHRIDWVFKRRDMPLQITAEHGHWRKVQDRDGAGGWVHYALLSGVRTVLVEKDMMPLYARPDPASQVAAHFEMGVVARLGTCTQDWCRISAGGYRGWAPKENLWGVGTDEIRELEHHHHHH,not soluble
3,MTSRSNSGPGIQRRRGAIKHARVHEIRGHQFVATFFRQPHFCSLCSDFMWGLNKQGYQCQLCSAAVHKKCHEKVIMQCPGSAKNTKETMALKERFKVDIPHRFKTYNFKSPTFCDHCGSMLYGLFKQGLRCEVCNVACHHKCERLMSNLCGVNQKQLSEMYHEIKRGTHATASCPPNIANLHLNGETSKNNGSLPNKLKNLFKSHQYSVEEQKETDEYMDNIWGGGDGPVKKFALPHFNLLKVLGKGSFGKVMLVELKGKNEFYAMKCLKKDVILEDDDTECTYIERRVLILASQCPFLCQLFCSFQTNEYLFFVMEYLNGGDLMHHIQQIKKFDEARTRFYACEIVVALQFLHTNNIIYRDLKLDNVLLDCDGHIKLADFGMAKTEMNRENGMASTFCGTPDYISPEIIKGQLYNEAVDFWSFGVLMYEMLVGQSPFHGEGEDELFDSILNERPYFPKTISKEAAKCLSALFDRNPNTRLGMPECPDGPIRQHCFFRGVDWKRFENRQVPPPFKPNIKSNSDASNFDDDFTNEKAALTPVHDKNLLASIDPEAFLNFSYTNPHFSK,not soluble
4,MTSSPELARAVAATLARHVTDVVICPGSRNSPLSLELIARDDIRVHTRIDERSAAFLALGLARSSKRHVAVVTTSGTAVANCAPAMIEAAYSHTPLIMVSADRPERLHGTGANQTIEQRGIFNVVDTDHVVDITDLNSISFARNVIHINVALDVPLVDVLPEV,not soluble
5,MTSSPPSFMSYEDRIQEGDTVIVYVTYGQMVPTIVKRGQTLMMKYGALRHEFIIGKRWGQRLSATAGYVYILRPTSDLWTRALPRRTQILYTADCAQILSLLDAKPGSVICESGTGSGSLSHAIALTVAPTGHLYTHDIDETRTHKVLEEFKVHGLGSVTTAVVRNVCTSGFHVENAADGVFLDVPAPWEAIPFAAKSIFRARGGRLVSFSPCLEQVQRACLAMAAAGFVSIETIELVPEQKKIVSQHRQTLEEFEELGDAYPKERKRNVDGTIVEQSSSAIPRITIAIVYPYSQPTHTGYLTHATMLPVAE,not soluble
6,MTTASTSQVRQNYDQDSEAAINRQINLELYASYVYLSMSYYFDRDDVALKNFAKYFLHQSHEERCHAEKLMKLQNQRGGRIFLQDIQKPDRDDWESGLNAMEAALQLEKNVNQSLLELHKLATDKNDPHLSDFIETHYLNCQVCAIKCLGDHVTNLRKMGAPESGLAEYLFDKHTLGDSDNES,soluble
7,MTTATAGLAVELKQSTAQAHEKAEHSTFMSDLLKGRLGVAEFTRLQEQAWLFYTALEQAVDAVRASGFAESLLDPALNRAEVLARDLDKLNGSSEWRSRITASPAVIDYVNRLEEIRDNVDGPALVAHHYVRYLGNLSGGQVIARMMQRHYGVDPEALGFYHFEGIAKLKVYKDEYREKLNNLELSDEQREHLLKEATDAFVFNHQVFADLGKGL,soluble
8,MTTAVARLQPSASGAKTRPVFPFSAIVGQEDMKLALLLTAVDPGIGGVLVFGDRGTGKSTAVRALAALLPEIEAVEGCPVSSPNVEMIPDWATVLSTNVIRKPTPVVDLPLGVSEDRVVGALDIERAISKGEKAFEPGLLARANRGYLYIDECNLLEDHIVDLLLDVAQSGENVVERDGLSIRHPARFVLVGSGNPEEGDLRPQLLDRFGLSVEVLSPRDVETRVEVIRRRDTYDADPKAFLEEWRPKDMDIRNQILEARERLPKVEAPNTALYDCAALCIALGSDGLRGELTLLRSARALAALEGATAVGRDHLKRVATMALSHRLRRDPLDEAGSTARVARTVEETLP,soluble
9,MTTFPTLDPELAAALTMLPKVDFADLPNARATYDALIGAMLADLSFDGVSLRELSAPGLDGDPEVKIRFVTPDNTAGPVPVLLWIHGGGFAIGTAESSDPFCVEVARELGFAVANVEYRLAPETTFPGPVNDCYAALLYIHAHAEELGIDPSRIAVGGQSAGGGLAAGTVLKARDEGVVPVAFQFLEIPELDDRLETVSMTNFVDTPLWHRPNAILSWKYYLGESYSGPEDPDVSIYAAPSRATDLTGLPPTYLSTMELDPLRDEGIEYALRLLQAGVSVELHSFPGTFHGSALVATAAVSERGAAEALTAIRRGLRSLSPVS,soluble
10,MTTHTGGCQCGAVRFRATGDLQDSSICHCRMCQKAFGAYYAPLVSVRNVEFEWTRGEPKRFQSSSVVKRGFCPECGTPLTYEAPDGVAVAAGAFDDPAALPPTIQWGVERKIDFVDTLHTLPAVATEDDLTQVDYLTNLVSYQHPDHDTENWPPEKR,not soluble
11,MTTIVGVRAREVLDSRGFPTVEAEVELEGGARGRAMVPSGASTGTHEALELRDGGKRYLGKGVRRAVENVNERIAPELVGMDALDQEGVDRAMLELDGTPNKANLGANAVLAVSLAVARAAAEALGLPLYRYLGGVQGVTLPVPLMNVINGGKHADNRVDFQEFMLVPAGAGSFAEALRIGAEVFHTLKAVLKEKGYSTNVGDEGGFAPDLRSNEEAVELLLLAIERAGYTPGQEVSLALDPATSELYRDGKYHLEGEGKVLSSEEMVAFWEAWVEKYPIRSIEDGLAEDDWEGWRLLTERLGGKVQLVGDDLFVTNPERLRAGIERGVANAILVKVNQIGTLSETLEAIRLAQRSGYRAVISHRSGETEDSFIADLAVAVNAGQIKTGSLSRSDRLAKYNQLLRIEEELGRAARFLGYAAF,soluble
12,MTTMPQRESTIAVPDDRRKQLGAFLRARRESLDPQRLGLPRVGRRRTPGLRREEVAMLADVGVTWYTWLEQGREVNPSEAVLVGVANALQCSPLETRHLFVLAGLTPPEATQVTVCEGISPGTRRMLDSLMPQPASIQKPNFDIVAWNDSFCRLMGIDFATLPEEDRNCIYLYLTHETWRSRIENRDVLPTFVSYFRAAMAEHRGDPAWENKLARFFAASSEFEALWHQRYEVRGVENQIKHFNHPQLGRFSLQQMYWYSAPRNGSRLLVYLPMDEAGEQALAWLDQH,not soluble
13,MTTMTNSLISNSVSSVPESLFSSASIHRPVAINPAMLAQFSINLPVLPFESSASLGTSTTSSSRCSSTESSAAPGKIRRGRPQQEIADGQDAHSQKKRHRRLYARQYRAQMRQKVENVKSLHDEKEQLELEVKALRQAVSGLQQENAQKDFLISILQLNNQINHS,not soluble
14,MTTTDKQLLYVRTEMTIPGVGTSIHIAELEPTSTTHCTLHRILELDPSNTIRGAAHGNAVAGMAAAPERTVPHPNSYANFPDITATHLLQEEFEVLWAEAVAKFSELR,not soluble
15,MTTVMKFGGTSVGSGERIRHVAKIVTKRKKEDDDVVVVVSAMSEVTNALVEISQQALDVRDIAKVGDFIKFIREKHYKAIEEAIKSEEIKEEVKKIIDSRIEELEKVLIGVAYLGELTPKSRDYILSFGERLSSPILSGAIRDLGEKSIALEGGEAGIITDNNFGSARVKRLEVKERLLPLLKEGIIPVVTGFIGTTEEGYITTLGRGGSDYSAALIGYGLDADIIEIWTDVSGVYTTDPRLVPTARRIPKLSYIEAMELAYFGAKVLHPRTIEPAMEKGIPILVKNTFEPESEGTLITNDMEMSDSIVKAISTIKNVALINIFGAGMVGVSGTAARIFKALGEEEVNVILISQGSSETNISLVVSEEDVDKALKALKREFGDFGKKSFLNNNLIRDVSVDKDVCVISVVGAGMRGAKGIAGKIFTAVSESGANIKMIAQGSSEVNISFVIDEKDLLNCVRKLHEKFIEKTNS,soluble
16,MTTVTVTTEVPSSGKTEDGHVFCDSSSAHIIEETEYVRQMRTTLEKIRNHMFKEKEGCGNARHKLDAEGSGNIQNGSDSTTDPTCLDLLMENMRRKDQQLLEMNRENEVLQIKLEASREAGAAALRNVAQRLFDNYQTQAGDLEKKHEGRKHLLQVNNLEKEQALKGSAESLNLLSEKLEEKHGQIVGLENRVQRMENNKELKTRVAHWTETPRTLVSKAVSTSELKTEGASPYLMLIRLRK,not soluble
17,MTVDHRQWAREAIRIIEADFQRSADTHLIPLETPGLPGVELYFKDESSHPTGSLKHRLARSLFLYALCNGWLRPAAPVIEASSGSTAISEAYFARLLGLPFIAVMPASTSKEKIAQIAFYGGQSHLVEDPTQIYAESERLARESGGHFMDQFTYAERATDWRANNNIAESIFQQMRHEPYPTPTWLISSPGTGGTLATLGRYVRYRQHCTRVLCADAERSVFFDAYVSGDRGLTLDCGSRIEGIGRPRVEASFLPEVIDAMVKVPDAWSLAAMHYLARRLGRRVGGSSGTNLIGALVAARQMVAAGEKGSLVAILCDGGERYATTYYDPVWLARQGYALEPLVEALAACIERGVALPDGLLVAG,not soluble
18,MTVKIALLGFGTVASGVPFLLKENGGKINQSAHSDIKVAKVLVKDEDEKNRLLAAGNDFNFVTNVDDILSDQDITIVVELMGRIEPAKTFITRALEAGKHVVTANKDLLAVHGAELLEIAQANKVALYYEAAVAGGIPILRTLANSLASDKITRVLGVVNGTSNFMVTKMVEEGW,not soluble
19,MTVPLTTRDRIALIPIAEIHILNPRTRNKKIHHELIENIKTVGLKRPITVSRRVSTQGSFNYDLVCGQGRLEAFLALEATEIPAFVIDSAEEDCLVMSLVENVARRQHRPIDLMNEVGRLKGRGKTDAEIATIIGSTSSWVNMIVNLIERGEEKLLSAVETGLIPLSMATDIARSSESDIQDLLTDAYERGIRGKKITKLRHLLELRAKKDKLVRGNPLGVSQNKKKRLTPTDLRHLFEREAERQRLMVKKAAFTHDRVVFSIQAIKELLAVSDFEKLLSTEHLDSMPKLIQARLSNRGGL,not soluble
20,MTVQIENEFLIATFAEEGAELVSLQSKETGIEYIWQGNPEFWARHAPVLFPIVGRLKEDTYMYQNQAYHLTQHGFARDQVFDVIEKGGEEVSFSLKSTKETKKKYPFDFELVITYTLEHQELTVNYQVEYTGKEEMYFGIGGHPAFNVPLESSLTFEDYYLSFSPKKSRTQIPLAGPFIDLANKTLAQTNTSFDLTHQLFENDAMIFETKGQTAITIATDESDHQVTLSYPEMPFVGIWSPTPKEAPFVCIEPWCGIADAVDATGQLAEKFGINKLPANELFKTQYMISVKLEHHHHHH,not soluble
21,MTVQVFHTLFLTNDCGDHVVLINTREIALPGDEWVKRVYFHHTGYPGGASWTLAWQLHEKDPTMVMKKAVYNSMRGNLQRRHTMQRLHLFADDQVPEEILQNVTNQIRTPRSIPQRLDHIDKETLENFPNIMDYPKDYILRLEHHHHHH,not soluble
